Measurements reported in the supplement of paper PMC7877785.
± gives the uncertainty stated by the source.

Assay: self-splicing fitness, log relative to wild type (ln ratio); higher = more splicing; Tetrahymena group I intron in knt gene, E. coli kanamycin selection, DiMSum; sequences stand for … in CUCUCU…GGAGGGAAAAGUUAUCAGGCAUGCACCUGGUAGCUAGUCUUUAAACCAAUAGAUUGCAUCGGUUUAAAAGGCAAGACCGUCAAAUUGCGGGAAAGGGGUCAACAGCCGUUCAGUACCAAGUCUCAGGGGAAACUUUGAGAUGGCCUUGCAAAGGGUAUGGUAAUAAGCUGACGGACAUGGUCCUAACCACGCAGCCAAGUCCUAAGUCAACAGAUCUUCUGUUGAUAUGGAUGCAGUUCACAGACUAAAUGUCGGUCGGGGAAGAUGUAUUCUUCUCAUAAGAUAUAGUCGGACCUCUCCUUAAUGGGAGCUAGCGGAUGAAGUGAUGCAACACUGGAGCCGCUGGGAACUAAUUUGUAUGCGAAAGUAUAUUGAUUAGUUUUGGAGUACUCGUGGUCG
In short: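 DiMSum derived fitness as the error-weighted combination of fold changes across replicates, kanamycin versus no kanamycin, normalised to wild type. E. coli BL21(DE3) held the library, which randomised all eight P1ex-region intron nucleotides within the knt kanamycin-resistance gene on pET-22b(+). Six replicate transformations grew overnight at 37°C or 30°C on LB agar with or without 25 μg/mL kanamycin, also containing 100 μg/mL carbenicillin, 50 μM IPTG and 0.2% rhamnose, and pooled colonies were amplicon-sequenced on an Illumina HiSeq 2500.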

Sequence	self-splicing fitness (ln) (30 °C)	self-splicing fitness (ln) (37 °C)
UUCAAGCAAUAUUACGGUUA	-0.0762 ± 0.097	0.272 ± 0.086
UUCAAGCAAUAUUACGUCGA	-0.383 ± 0.078	-0.0975 ± 0.087
UUCAAGCAAUAUUACGUGCG	-1.48 ± 0.092	-0.425 ± 0.088
UUCAAGCAAUAUUACGUGGU	-4.01 ± 0.2	-2.7 ± 0.17
UUCAAGCAAUAUUACGUUAA	-1.59 ± 0.11	-1.47 ± 0.12
UUCAAGCAAUAUUACGUUAC	-3.73 ± 0.36	-2.72 ± 0.23
UUCAAGCAAUAUUACGUUCU	-2.22 ± 0.14	-2.14 ± 0.17
UUCAAGCAAUAUUACGUUUU	-3.78 ± 0.17	-2.65 ± 0.16
UUCCAGCAAUAUUACGAAAG	-2.6 ± 0.27	-2.33 ± 0.27
UUCCAGCAAUAUUACGAACG	-2.22 ± 0.16	-0.164 ± 0.15
UUCCAGCAAUAUUACGAGGA	-1.83 ± 0.19	-0.64 ± 0.22
UUCCAGCAAUAUUACGCAGG	-3.53 ± 0.23	-2.57 ± 0.36
UUCCAGCAAUAUUACGCAUG	-3.41 ± 0.25	-1.7 ± 0.16
UUCCAGCAAUAUUACGCAUU	-3.09 ± 0.17	-0.682 ± 0.11
UUCCAGCAAUAUUACGCCCA	-1.38 ± 0.18	-0.115 ± 0.17
UUCCAGCAAUAUUACGCCGU	-2.53 ± 0.16	-1.43 ± 0.23
UUCCAGCAAUAUUACGCGGU	-3.42 ± 0.18	-2.54 ± 0.2
UUCCAGCAAUAUUACGCUUU	-3.23 ± 0.23	-0.119 ± 0.12
UUCCAGCAAUAUUACGGAGC	-4.31 ± 0.31	-2.99 ± 0.47
UUCCAGCAAUAUUACGGCGG	-3.09 ± 0.17	-2.72 ± 0.27
UUCCAGCAAUAUUACGGGUA	-0.292 ± 0.08	0.0398 ± 0.088
UUCCAGCAAUAUUACGGUCC	-1.79 ± 0.15	-2.18 ± 0.17
UUCCAGCAAUAUUACGUCCU	-2.67 ± 0.21	-2.29 ± 0.32
UUCCAGCAAUAUUACGUCUA	-0.638 ± 0.082	0.0519 ± 0.093
UUCCAGCAAUAUUACGUCUC	-3.17 ± 0.23	-1.83 ± 0.2

Sequence	self-splicing fitness (ln) (30 °C)	self-splicing fitness (ln) (37 °C)
UUCCAGCAAUAUUACGUGAC	-2.56 ± 0.2	-1.89 ± 0.21
UUCCAGCAAUAUUACGUUCU	–	-3.34 ± 0.31
UUCCAGCAAUAUUACGUUUC	-3.24 ± 0.23	-2.17 ± 0.21
UUCGAGCAAUAUUACGAAGG	-2.09 ± 0.23	-1.62 ± 0.27
UUCGAGCAAUAUUACGAAUA	–	-1.26 ± 0.3
UUCGAGCAAUAUUACGACGU	-3.55 ± 0.24	-1.85 ± 0.14
UUCGAGCAAUAUUACGACUU	-3.32 ± 0.29	-1.49 ± 0.29
UUCGAGCAAUAUUACGAGAA	–	-0.969 ± 0.32
UUCGAGCAAUAUUACGAGGC	-2.45 ± 0.29	-2.98 ± 0.3
UUCGAGCAAUAUUACGAUCU	-2.66 ± 0.19	-1.83 ± 0.23
UUCGAGCAAUAUUACGAUUA	-1.39 ± 0.26	-0.875 ± 0.25
UUCGAGCAAUAUUACGCACU	–	-1.76 ± 0.38
UUCGAGCAAUAUUACGCAUA	-3.18 ± 0.42	-1.39 ± 0.26
UUCGAGCAAUAUUACGCGGG	-3.26 ± 0.43	-2.07 ± 0.32
UUCGAGCAAUAUUACGCUUU	-3.89 ± 0.26	-2.56 ± 0.21
UUCGAGCAAUAUUACGGUGA	-1.33 ± 0.1	-0.708 ± 0.11
UUCGAGCAAUAUUACGGUGC	-3.24 ± 0.31	-2.29 ± 0.29
UUCGAGCAAUAUUACGUAUU	–	-2.79 ± 0.43
UUCGAGCAAUAUUACGUCCG	-3.05 ± 0.24	-1.24 ± 0.28
UUCGAGCAAUAUUACGUCGA	–	-1.49 ± 0.19
UUCGAGCAAUAUUACGUGAU	-1.8 ± 0.2	-1.35 ± 0.21
UUCGAGCAAUAUUACGUGCU	-2.02 ± 0.18	–
UUCGAGCAAUAUUACGUGUC	-3.11 ± 0.23	-2.77 ± 0.34
UUCGAGCAAUAUUACGUUAA	-2.16 ± 0.31	-1.82 ± 0.21
UUCUAGCAAUAUUACGAAAU	-2.85 ± 0.28	-1.75 ± 0.32

Sequence	self-splicing fitness (ln) (30 °C)	self-splicing fitness (ln) (37 °C)
UUCUAGCAAUAUUACGACAC	-2.05 ± 0.27	-1.71 ± 0.28
UUCUAGCAAUAUUACGAGAG	-2.3 ± 0.22	-2.4 ± 0.29
UUCUAGCAAUAUUACGAGGU	-3.27 ± 0.31	-1.53 ± 0.2
UUCUAGCAAUAUUACGAUCC	–	-2.65 ± 0.38
UUCUAGCAAUAUUACGCAAA	-0.225 ± 0.3	-1.23 ± 0.27
UUCUAGCAAUAUUACGCACG	-1.26 ± 0.26	-0.399 ± 0.3
UUCUAGCAAUAUUACGCCAC	–	-2.02 ± 0.46
UUCUAGCAAUAUUACGCCAU	-2.66 ± 0.32	–
UUCUAGCAAUAUUACGCCCA	-1.55 ± 0.16	-1.37 ± 0.14
UUCUAGCAAUAUUACGCCCU	-2.51 ± 0.27	-0.693 ± 0.19
UUCUAGCAAUAUUACGCGGA	-3.93 ± 0.3	-3.75 ± 0.33
UUCUAGCAAUAUUACGGGCU	-3.73 ± 0.36	-3.76 ± 0.36
UUCUAGCAAUAUUACGGGGG	-3.75 ± 0.37	-2.09 ± 0.22
UUCUAGCAAUAUUACGGGGU	-3.67 ± 0.33	-1.92 ± 0.24
UUCUAGCAAUAUUACGGUAA	-1.17 ± 0.13	-0.408 ± 0.085
UUCUAGCAAUAUUACGGUAU	–	-0.561 ± 0.24
UUCUAGCAAUAUUACGGUCA	-0.883 ± 0.15	-0.729 ± 0.11
UUCUAGCAAUAUUACGUAAG	-2.51 ± 0.15	-0.938 ± 0.15
UUCUAGCAAUAUUACGUAGC	–	-2.19 ± 0.31
UUCUAGCAAUAUUACGUCAA	-1.21 ± 0.13	-1.43 ± 0.16
UUCUAGCAAUAUUACGUGCA	-1.23 ± 0.13	-1.59 ± 0.16
UUCUAGCAAUAUUACGUGGG	-3.08 ± 0.16	-2.39 ± 0.15
UUCUAGCAAUAUUACGUUUU	-3.83 ± 0.23	-2.92 ± 0.18
UUGAAGCAAUAUUACGAAAG	-1.47 ± 0.082	-0.794 ± 0.1
UUGAAGCAAUAUUACGAACC	-1.68 ± 0.24	-1.77 ± 0.44

Sequence	self-splicing fitness (ln) (30 °C)	self-splicing fitness (ln) (37 °C)
UUGAAGCAAUAUUACGAACG	0.338 ± 0.093	0.443 ± 0.12
UUGAAGCAAUAUUACGACAC	-1.07 ± 0.13	-0.278 ± 0.2
UUGAAGCAAUAUUACGACGU	0.216 ± 0.046	0.439 ± 0.06
UUGAAGCAAUAUUACGAGCC	-2.69 ± 0.48	-1.56 ± 0.49
UUGAAGCAAUAUUACGAGGA	-2.32 ± 0.16	-0.555 ± 0.19
UUGAAGCAAUAUUACGAGUU	-3.34 ± 0.17	-1.58 ± 0.17
UUGAAGCAAUAUUACGAUUC	-2.33 ± 0.18	-2.3 ± 0.28
UUGAAGCAAUAUUACGAUUU	-1.58 ± 0.17	-0.941 ± 0.18
UUGAAGCAAUAUUACGCCUA	0.0255 ± 0.13	0.487 ± 0.22
UUGAAGCAAUAUUACGCGUA	-0.169 ± 0.069	-0.247 ± 0.098
UUGAAGCAAUAUUACGCUAA	-0.361 ± 0.085	-0.109 ± 0.097
UUGAAGCAAUAUUACGCUCG	0.0719 ± 0.11	0.419 ± 0.14
UUGAAGCAAUAUUACGCUUC	-2.86 ± 0.49	-2.06 ± 0.39
UUGAAGCAAUAUUACGGACC	-1.12 ± 0.14	-0.125 ± 0.2
UUGAAGCAAUAUUACGGAGA	-0.684 ± 0.11	-0.479 ± 0.15
UUGAAGCAAUAUUACGGCCG	0.53 ± 0.14	0.318 ± 0.22
UUGAAGCAAUAUUACGGCGG	0.15 ± 0.11	0.55 ± 0.13
UUGAAGCAAUAUUACGGGGA	-0.685 ± 0.08	0.372 ± 0.12
UUGAAGCAAUAUUACGGGUA	-0.282 ± 0.065	-0.527 ± 0.081
UUGAAGCAAUAUUACGGUAC	-2.04 ± 0.22	-2.44 ± 0.31
UUGAAGCAAUAUUACGUAAU	-3.46 ± 0.21	-1.06 ± 0.13
UUGAAGCAAUAUUACGUAUA	-1.25 ± 0.11	-0.207 ± 0.14
UUGAAGCAAUAUUACGUCGA	0.473 ± 0.084	0.333 ± 0.093
UUGAAGCAAUAUUACGUCGC	-3.48 ± 0.23	-1.49 ± 0.24
